In paper PMC11915744 one finds Kd data, which are given here for one substance.

In this test the target is NS1 used in the SPR assay (UniProt P03496). Put plainly: SPR.
Sequence of UniProt P03496 (P03496 whole entry): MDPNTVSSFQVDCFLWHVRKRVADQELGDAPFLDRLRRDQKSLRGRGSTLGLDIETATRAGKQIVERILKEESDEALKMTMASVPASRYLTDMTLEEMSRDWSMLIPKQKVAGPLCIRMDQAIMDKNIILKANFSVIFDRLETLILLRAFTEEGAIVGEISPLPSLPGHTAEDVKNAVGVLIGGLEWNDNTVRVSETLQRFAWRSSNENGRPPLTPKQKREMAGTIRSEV

Take “hnRNPH1 used in the SPR assay (from UniProt P31943 1-449) (natural protein)”: the Kd amounted to 10.4 µM.
